This data set concerns T1, BssHII restriction endonuclease (bssHIIR) (Bacillus stearothermophilus H3).
T1 sequence: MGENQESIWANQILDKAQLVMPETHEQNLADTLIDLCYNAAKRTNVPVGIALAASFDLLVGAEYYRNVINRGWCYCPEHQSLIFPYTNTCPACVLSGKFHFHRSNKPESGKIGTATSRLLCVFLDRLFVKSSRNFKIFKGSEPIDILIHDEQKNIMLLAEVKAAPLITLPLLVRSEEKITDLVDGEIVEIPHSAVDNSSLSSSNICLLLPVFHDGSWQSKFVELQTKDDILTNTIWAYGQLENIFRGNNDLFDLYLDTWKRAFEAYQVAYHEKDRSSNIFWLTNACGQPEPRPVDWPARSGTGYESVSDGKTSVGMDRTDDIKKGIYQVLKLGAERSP
Kind of data set: cleavage_in_vitro. Particulars: cell extract; activity seen after 10- and 100-fold dilution.

In turn, lambda DNA (BssHII sites) showed an activity (units per g wet cells) of 100000.

The record behind these values is patent US5786195.
